In US20090197812:

Assays:
Human I-κBα = target: T1, Human I-κBα
T1 chain: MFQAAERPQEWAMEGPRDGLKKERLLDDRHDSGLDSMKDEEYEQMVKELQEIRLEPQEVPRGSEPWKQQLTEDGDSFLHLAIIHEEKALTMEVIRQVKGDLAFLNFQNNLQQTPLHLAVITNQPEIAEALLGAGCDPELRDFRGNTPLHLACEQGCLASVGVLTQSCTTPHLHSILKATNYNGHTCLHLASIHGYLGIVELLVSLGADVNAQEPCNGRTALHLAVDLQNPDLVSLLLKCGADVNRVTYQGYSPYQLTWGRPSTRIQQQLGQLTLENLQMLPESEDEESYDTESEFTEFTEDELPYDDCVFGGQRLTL

[1] = target: mutant I-κBα, the phosphorylation sites of which were modified

B1: transglutaminase (guinea pig liver, Sigma) (protein)
chain: AEDLILERCDLQLEVNGRDHRTADLCRERLVLRRGQPFWLTLHFEGRGYEAGVDTLTFNAVTGPDPSEEAGTMARFSLSSAVEGGTWSASAVDQQDSTVSLLLSTPADAPIGLYRLSLEASTGYQGSSFVLGHFILLYNPRCPADAVYMDSDQERQEYVLTQQGFIYQGSAKFINGIPWNFGQFEDGILDICLMLLDTNPKFLKNAGQDCSRRSRPVYVGRVVSAMVNCNDDQGVLQGRWDNNYSDGVSPMSWIGSVDILRRWKDYGCQRVKYGQCWVFAAVACTVLRCLGIPTRVVTNFNSAHDQNSNLLIEYFRNESGEIEGNKSEMIWNFHCWVESWMTRPDLEPGYEGWQALDPTPQEKSEGTYCCGPVPVRAIKEGHLNVKYDAPFVFAEVNADVVNWIRQKDGSLRKSINHLVVGLKISTKSVGRDEREDITHTYKYPEGSEEEREAFVRANHLNKLATKEEAQEETGVAMRIRVGQNMTMGSDFDIFAYITNGTAESHECQLLLCARIVSYNGVLGPVCSTNDLLNLTLDPFSENSIPLHILYEKYGDYLTESNLIKVRGLLIEPAANSYVLAERDIYLENPEIKIRVLGEPKQNRKLIAEVSLKNPLPVPLLGCIFTVEGAGLTKDQKSVEVPDPVEAGEQAKVRVDLLPTEVGLHKLVVNFECDKLKAVKGYRNVIIGPA
polymerization of I-κβα on 4-12% NuPAGE (Human I-κBα): both the intact I-κBα and the mutant I-κBα, the phosphorylation sites of which were modified, were polymerized to high-molecular weight polymers, by transglutaminase | polymerization of I-κβα on 4-12% NuPAGE [1]: both the intact I-κBα and the mutant I-κBα, the phosphorylation sites of which were modified, were polymerized to high-molecular weight polymers, by transglutaminase
